Test results: publication PMC6529632, “Robust Stoichiometry of FliW-CsrA Governs Flagellin Homeostasis and Cytoplasmic Organization in Bacillus subtilis” (mBio, 2019)

Experiments:
[1] = tested on: FliW (Bacillus subtilis (3610?)); assay: EMSA; conditions: apparent Kd; FliW alone; 40 mM Tris-HCl pH 7.5, 4 mM MgCl2, 100 mM KCl, 20 ng/ul yeast RNA, 20 mM DTT, 10% glycerol, 4 U RNase inhibitor, 20 pM RNA, 37 C 30 min (FliW added for a …)
[2] = tested on: CsrA-WT-His6 (Bacillus subtilis (3610?)); assay: EMSA; conditions: apparent Kd; main text gives 290 nM; 40 mM Tris-HCl pH 7.5, 4 mM MgCl2, 100 mM KCl, 20 ng/ul yeast RNA, 20 mM DTT, 10% glycerol, 4 U RNase inhibitor, 20 pM RNA, 37 C 30 min (FliW added for a …)
[3] = tested on: CsrA-Hetero (CsrA-WT-His6/CsrA-N55D-strep) (Bacillus subtilis (3610?)); assay: EMSA; conditions: apparent Kd; main text gives 460 nM; 40 mM Tris-HCl pH 7.5, 4 mM MgCl2, 100 mM KCl, 20 ng/ul yeast RNA, 20 mM DTT, 10% glycerol, 4 U RNase inhibitor, 20 pM RNA, 37 C 30 min (FliW added for a …)
[4] = tested on: CsrA-N55D-strep (Bacillus subtilis (3610?)); assay: EMSA; conditions: apparent Kd; 40 mM Tris-HCl pH 7.5, 4 mM MgCl2, 100 mM KCl, 20 ng/ul yeast RNA, 20 mM DTT, 10% glycerol, 4 U RNase inhibitor, 20 pM RNA, 37 C 30 min (FliW added for a …)
[5] = target: T1, CsrA-WT-His6 (Bacillus subtilis (3610?)) (UniProt P33911); assay: EMSA; conditions: 40 mM Tris-HCl pH 7.5, 4 mM MgCl2, 100 mM KCl, 20 ng/ul yeast RNA, 20 mM DTT, 10% glycerol, 4 U RNase inhibitor, 20 pM RNA, 37 C 30 min (FliW added for a …)
T1 sequence: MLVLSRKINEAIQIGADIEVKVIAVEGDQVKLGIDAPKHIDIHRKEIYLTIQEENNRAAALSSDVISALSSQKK

[6] = target: T2, CsrA-N55D-strep N55D (Bacillus subtilis (3610?)) (UniProt P33911); assay: EMSA; conditions: 40 mM Tris-HCl pH 7.5, 4 mM MgCl2, 100 mM KCl, 20 ng/ul yeast RNA, 20 mM DTT, 10% glycerol, 4 U RNase inhibitor, 20 pM RNA, 37 C 30 min (FliW added for a …)
T2 sequence: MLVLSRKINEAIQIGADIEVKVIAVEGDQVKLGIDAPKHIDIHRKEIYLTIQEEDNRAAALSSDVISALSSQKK

[7] = target: T3, CsrA-Hetero (CsrA-WT-His6/CsrA-N55D-strep) N55D (Bacillus subtilis (3610?)) (UniProt P33911+P33911); assay: EMSA; conditions: 40 mM Tris-HCl pH 7.5, 4 mM MgCl2, 100 mM KCl, 20 ng/ul yeast RNA, 20 mM DTT, 10% glycerol, 4 U RNase inhibitor, 20 pM RNA, 37 C 30 min (FliW added for a …)
T3 sequence 1: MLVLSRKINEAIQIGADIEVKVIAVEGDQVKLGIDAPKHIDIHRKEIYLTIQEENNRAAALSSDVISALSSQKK
T3 sequence 2: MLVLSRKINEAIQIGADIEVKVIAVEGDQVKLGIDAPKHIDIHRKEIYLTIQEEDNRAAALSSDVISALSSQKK

[8] = target: T4, FliW (Bacillus subtilis (3610?)) (UniProt P96503); assay: EMSA; conditions: 40 mM Tris-HCl pH 7.5, 4 mM MgCl2, 100 mM KCl, 20 ng/ul yeast RNA, 20 mM DTT, 10% glycerol, 4 U RNase inhibitor, 20 pM RNA, 37 C 30 min (FliW added for a …)
T4 sequence: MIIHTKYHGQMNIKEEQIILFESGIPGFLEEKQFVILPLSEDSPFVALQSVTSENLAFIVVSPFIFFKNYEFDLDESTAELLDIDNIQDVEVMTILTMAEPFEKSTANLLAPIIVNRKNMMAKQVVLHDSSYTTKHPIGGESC

[9] = target: T5, CsrA^N55D-strep (monomer co-expressed with CsrA^WT-His6) (Bacillus subtilis, UniProt P33911 1-74, N55D); assay: sequential affinity co-purification with SDS-PAGE; both chains co-expressed from one vector in E. coli; Ni-NTA by the His6 tag, then Strep-Tactin by the Strep tag, then size exclusion; Coomassie-stained denaturing gel, densitometry; conditions: partners not purified
T5 construct: CsrA of Bacillus subtilis with N55D; Same chain as in m2 and m3; Written as a single chain for the pair row of the heterodimer; also called CsrA^N55D-strep tag; source: Rosetta-gami E. coli, co-expressed with CsrA^WT-His6 from dual-expression vector pRO76
T5 sequence (looked up): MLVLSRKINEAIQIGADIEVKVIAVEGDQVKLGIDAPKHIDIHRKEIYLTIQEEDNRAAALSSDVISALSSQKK

## hag 5' UTR transcript +1 to +100
[1]
  Kd: 1110 nM
[2]
  Kd: 287 nM
[3]
  Kd: 458 nM
[4]
  Kd: 960 nM

## GGUAGCCGGGAGGAGGCGCAAAAGACUCAGCCAGUUACAAAAUAAGGGCACAAGGACGUGCCUUAACAACAUAUUCAGGGAGGAACAAAACAAUGAGAAUU [hag 5' UTR transcript +1 to +100]
[5]
  Kd: 287 nM
[6]
  Kd: 960 nM
  binding: binds
[7]
  Kd: 458 nM
[8]
  Kd: 1110 nM

B1: CsrA^WT-His6 (monomer co-expressed with CsrA^N55D-strep) (natural protein, Bacillus subtilis, UniProt P33911 1-74, looked up)
chain: MLVLSRKINEAIQIGADIEVKVIAVEGDQVKLGIDAPKHIDIHRKEIYLTIQEENNRAAALSSDVISALSSQKK
notes: CsrA of Bacillus subtilis, wild type, amplified from pCSB9; Same chain as in m1 and m3; Written as a single chain for the pair row of the heterodimer; also called CsrA-His6; source: Rosetta-gami E. coli, co-expressed with CsrA^N55D-strep from dual-expression vector pRO76
[9]
  stoichiometry N: 0.88
